{"source": "patent US20030004092A1", "biological_target": "Myc expressed from a co-transfected Myc expressing plasmid (pSpMyc)", "experiment": "cell-based or functional assay", "data": [{"substance": "cdr2 expressed from a co-transfected cdr2 expressing plasmid", "values": [{"measurement": "Myc-dependent transcriptional activity (pM4luc luciferase reporter, NIH-3T3 cells)", "result": 4, "unit": "fold"}]}]}
